Measured values as given in PMC2814181.
One block for each substance: values may come before it.

Columns and labels:
[1] = biological target: Neptune (mKate M41G S61C S158C Y194F); assay: native gel or EMSA
[2] = biological target: Neptune (mKate M41G S61C S158C Y194F); assay: AUC
[3] = biological target: Neptune (mKate M41G S61C S158C Y194F); assay: SEC-MALS
[4] = biological target: Neptune, His tag removed by TEV protease (crystallized form); assay: crystal structure
dTomato [5] = assay: native gel or EMSA
dTomato [6] = assay: SDS-PAGE of unboiled samples
dTomato [7] = assay: SEC-MALS
mKate [8] = assay: native gel or EMSA
mKate [9] = assay: SEC-MALS

stoichiometry N [1]: 2 | Kd [2]: 0.5 µM | stoichiometry N [3]: 2
Substance: Neptune (mKate M41G S61C S158C Y194F)

stoichiometry N [4]: 4
Substance: Neptune, His tag removed by TEV protease (crystallized form)

stoichiometry N (dTomato [5]): 2 | stoichiometry N (dTomato [6]): 2 | stoichiometry N (dTomato [7]): 2
Substance: dTomato

stoichiometry N (mKate [8]): 2 | stoichiometry N (mKate [9]): 2
Substance: mKate
